Laboratory results: patent US20180179283A1 (ADICET BIO, published 2018)

What was measured:
[1] = target: T1, HLA-A2/P68 peptide on T2 cells; test: FACS, T2 + P68 peptide
T1 construct: also called p68-DDX5

[2] = target: HLA-A2/MART1(26) control peptide on T2 cells (human); test: FACS, T2 + MART1 peptide
[3] = target: HLA-A2/MAGE-A4-A2 peptide on T2 cells (human); test: FACS (MFI) vs native peptide, Ala-mutant peptide on T2 cells
[4] = target: HLA-A2/MAGE-A4-A4 peptide on T2 cells (human); test: as above
[5] = target: HLA-A2/MAGE-A4-A5 peptide on T2 cells (human); test: as above
[6] = target: HLA-A2/MAGE-A4-A6 peptide on T2 cells (human); test: as above
[7] = target: HLA-A2/MAGE-A4-A7 peptide on T2 cells (human); test: as above

B1: 905-2-D7 TCR-like antibody (antibody, mouse IgG1, kappa, V domains shown)
VH: QVQLKESGPGLVAPSQSLSITCTVSGFSLTSYGVHWVRQPPGKGLEWLGVIWAGGTTNYNSALMSRLSISRDNSKSQVFLEMNSLQTDDTAIYYCARDGHFHFDFWGQGTTLTVSS
VL: DIQMTQSPASLSVSVGETVTITCRASDIIYSNLAWYQQKQGKSPQLLVYAATNLAAGVPSRFSGSGSGTQYSLKINSLQSEDFGTYYCQHFWGSSISFGSGTKLEIKR
notes: also called Tyr D7
Q: Does B1 bind [1]?
A: Result: no binding

Q: Does B1 bind [2]?
A: Result: no binding

B2: 906-11-D11 TCR-like antibody (antibody, mouse IgG1, kappa, V domains shown)
VH: not shown
VL: DIQMTQSPSSLSASLGGKVTITCKASQDIHNYIAWYQHKPVKGPRLLIHYTSTLQPGTPSRFSGSGSGRDYSFSISNLEPEDIATYYCLQYDNLWTFGGGTKLEIKR
notes: also called Tyr D11
Q: Does B2 bind [1]?
A: Result: no binding

Q: Does B2 bind [2]?
A: Result: no binding

B3: C106B9 TCR-like antibody (antibody, mouse IgG1, kappa, V domains shown)
VH: QVQLQQSGGEVMKPGASVKLSCKATGYTFTGYWIEWIKQRPGHGLEWIGEILPGSGGTNYNEKFKGKATFTAHTSSNTAYMQLSSLTTEDSAIYYCARDSNSFTYWGQGTLVTVSS
VL: QIVLTQSPAIMSASPGEKVTITCSVSSSVDYIHWFQQKPGTSPKFWIYSTSILASGVPARFSGSGSGTSYSLTISRMEAEDAATYYCQQRSSYPPTFGSGTKLEIKR
notes: also called MAGE-A4 C106B9
Q: Which “% decrease in binding” value [3] does the source give for B3 here?
A: The value was 33%.

Q: And the “% decrease in binding” value [4]?
A: Its value is 90%.

Q: And the “% decrease in binding” value [5]?
A: Its value is 90%.

Q: What about the “% decrease in binding” value [6] of the same binder?
A: The value was 90%.

Q: What about the “% decrease in binding” value [7] of the same binder?
A: The value was 90%.
